This assay addresses Recombinant human VISTA Fc Chimera (human (homo sapiens)). Description: functional ELISA: rhVISTA coated at 2 µg/mL, biotin-labeled rhVSIG3, streptavidin-HRP. As to the method: Following blocking of the wells with 1% BSA, varying amounts of rhVSIG3 labeled with biotin was added. Biotin label associated with the plate due to the rhVSIG3—rhVISTA interaction was detected with streptavidin-HRP.
(An ELISA detects its analyte on a solid surface through an enzyme-linked reagent.)

Consider one molecule from US11649285B2, “Identification of VSIG3/VISTA as a novel immune checkpoint and use thereof for immunotherapy” (BIO-TECHNE CORPORATION, dated 2023).

Recombinant human VISTA Fc Chimera (human (homo sapiens)), sequence (chain, as listed by the source mutant limits assumed): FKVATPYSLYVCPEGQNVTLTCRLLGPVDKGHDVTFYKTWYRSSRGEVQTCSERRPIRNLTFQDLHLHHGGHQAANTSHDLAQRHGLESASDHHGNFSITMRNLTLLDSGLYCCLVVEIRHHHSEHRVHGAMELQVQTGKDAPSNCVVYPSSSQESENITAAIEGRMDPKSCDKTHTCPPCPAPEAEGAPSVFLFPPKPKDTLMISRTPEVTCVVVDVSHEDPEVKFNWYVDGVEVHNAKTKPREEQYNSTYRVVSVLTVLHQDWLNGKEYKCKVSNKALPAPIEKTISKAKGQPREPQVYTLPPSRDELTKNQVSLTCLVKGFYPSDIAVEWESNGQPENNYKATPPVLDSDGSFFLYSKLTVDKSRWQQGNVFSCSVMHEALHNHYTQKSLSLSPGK

B1: Recombinant human VSIG3 Fc Chimera (Fc fusion)
chain: LEVSESPGSIQVARGQTAVLPCTFTTSAALINLNVIWMVTPLSNANQPEQVILYQGGQMFDGAPRFHGRVGFTGTMPATNVSIFINNTQLSDTGTYQCLVNNLPDIGGRNIGVTGLTVLVPPSAPHCQIQGSQDIGSDVILLCSSEEGIPRPTYLWEKLDNTLKLPPTATQDQVQGTVTIRNISALSSGLYQCVASNAIGTSTCLLDLQVISPQPRNIGLIAG
In general, EC50 refers to the concentration needed to bring the measured effect to its halfway point. Take B1: the 50% effective concentration (EC50) was approximately 0.25 µg/mL.
